T1: B7H3 (UniProt Q5ZPR3 29-534, limits assumed)
T1 construct: whole, on cells; also called CD276
T1 sequence (looked up): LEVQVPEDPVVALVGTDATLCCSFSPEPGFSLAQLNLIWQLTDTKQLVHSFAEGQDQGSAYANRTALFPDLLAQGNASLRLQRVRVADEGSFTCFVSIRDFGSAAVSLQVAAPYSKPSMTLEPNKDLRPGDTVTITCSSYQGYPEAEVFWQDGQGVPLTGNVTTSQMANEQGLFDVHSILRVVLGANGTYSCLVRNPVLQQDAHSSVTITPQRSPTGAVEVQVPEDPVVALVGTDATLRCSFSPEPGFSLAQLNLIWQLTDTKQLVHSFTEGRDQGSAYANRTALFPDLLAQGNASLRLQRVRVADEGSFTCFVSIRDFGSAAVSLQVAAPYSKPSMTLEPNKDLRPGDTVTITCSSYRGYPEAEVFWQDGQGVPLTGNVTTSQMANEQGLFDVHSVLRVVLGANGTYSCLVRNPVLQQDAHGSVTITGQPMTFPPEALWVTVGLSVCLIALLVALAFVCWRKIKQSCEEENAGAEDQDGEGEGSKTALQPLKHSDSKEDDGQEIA


Key:
B7H3 = target: T1, B7H3; test: cell binding assay on A375 cells
CD3 = target: T2, CD3 (human, UniProt P07766 23-207); test: cell binding assay on isolated primary T cells
T2 construct: whole, on cells; CD3 is a multi-chain complex; also called CD3ε; CD3 on the surface of primary T cells
T2 sequence (P07766 23-207): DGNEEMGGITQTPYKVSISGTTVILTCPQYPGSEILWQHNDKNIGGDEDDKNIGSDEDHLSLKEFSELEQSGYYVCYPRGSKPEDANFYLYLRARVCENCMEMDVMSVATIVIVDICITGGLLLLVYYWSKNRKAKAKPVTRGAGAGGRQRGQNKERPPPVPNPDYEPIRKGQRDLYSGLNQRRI

Binder | binding result (B7H3) | binding result (CD3)
cx5187 (other, hole 91, 93 or 296, differing at the C-terminal end; the first is written; also called bivalent, bi-epitopic B7H3-targeted constrained CD3 engaging construct; Knob-VH) chain 1: EVQLVESGGGEVQPGGSLRLSCAASGFSFSSNVMMWVRQAPGKGLEWVSTIYSSGTGTFYAESVKGRFTISRDNAKNTLYLQMSSLRPEDTAVYYCATSGPVRGWGPRSQGTLVTVKPPGGGGDKTHTCPPCPAPGGPSVFLFPPKPKDTLMISRTPEVTCVVVDVSHEDPEVKFNWYVDGVEVHNAKTKPREEQYNSTYRVVSVLTVLHQDWLNGKEYKCKVSNKALPAPIEKTISKAKGQPREPQVYTLPPCRDELTKNQVSLWCLVKGFYPSDIAVEWESNGQPENNYKTTPPVLDSDGSFFLYSKLTVDKSRWQQGNVFSCSVMHEALHNHYTQKSLSLSPTGGGGGSGGGGGSGGGGGSEVQLVESGGGLVQPGGSLRLSCAASGFTFNTYAMNWVRQAPGKCLEWVARIRSKYNNYATYYADSVKGRFTISRDDAKNTLYLQMSSLRAEDTAVYYCVRHGNFGNSYVSWFAYWGQGTLVTVKPGGGGEVQLVESGGGEVQPGGSLRLSCAASGFTFSSYHMSWFRQAPGKQREPVATSHHGGTTNYAGSVKGRFTISRDNAKNTVYLQMNTLRAEDTAVYYCKADHGYQGRGYWGQGTLVTVKP chain 2: DKTHTCPPCPAPGGPSVFLFPPKPKDTLMISRTPEVTCVVVDVSHEDPEVKFNWYVDGVEVHNAKTKPREEQYNSTYRVVSVLTVLHQDWLNGKEYKCKVSNKALPAPIEKTISKAKGQPREPQVCTLPPSRDELTKNQVSLSCAVKGFYPSDIAVEWESNGQPENNYKTTPPVLDSDGSFFLVSKLTVDKSRWQQGNVFSCSVMHEALHNRYTQKSLSLSPTGGGGGSGGGGGSGGGGGSQAVVTQEPSLTVSPGGTVTLTCGSSTGAVTTSNYANWVQQKPGQAFRGLIGGTNKRAPGVPARFSGSLLGGKAALTISGAQPEDEADYYCALWYSNHWVFGCGTKLEIKGGGGEVQLLESGGGEVQPGGSLRLSCAASGFSFSINAMGWYRQAPGKRREFVAAIESGRNTVYAESVKGRFTISRDNAKNTVYLQMSSLRAEDTAVYYCGLLKGNRVVSPSVAYWGQGTLVTVKP | binds | no binding
cx5823 (other, Short peptide linkers only 'e.g.'; also called bivalent B7H3-targeting constrained CD3 engaging construct) chain 1: EVQLVESGGGEVQPGGSLRLSCAASGFSFSSNVMMWVRQAPGKGLEWVSTIYSSGTGTFYAESVKGRFTISRDNAKNTLYLQMSSLRPEDTAVYYCATSGPVRGWGPRSQGTLVTVKPPGGGGDKTHTCPPCPAPGGPSVFLFPPKPKDTLMISRTPEVTCVVVDVSHEDPEVKFNWYVDGVEVHNAKTKPREEQYNSTYRVVSVLTVLHQDWLNGKEYKCKVSNKALPAPIEKTISKAKGQPREPQVYTLPPCRDELTKNQVSLWCLVKGFYPSDIAVEWESNGQPENNYKTTPPVLDSDGSFFLYSKLTVDKSRWQQGNVFSCSVMHEALHNHYTQKSLSLSPGGGGGGSGGGGGSGGGGGSEVQLVESGGGLVQPGGSLRLSCAASGFTFNTYAMNWVRQAPGKCLEWVARIRSKYNNYATYYADSVKGRFTISRDDAKNTLYLQMSSLRAEDTAVYYCVRHGNFGNSYVSWFAYWGQGTLVTVKPGGGGEVQLVESGGGEVQPGGSLRLSCAASGFTFSSYHMSWFRQAPGKQRELVATSHHGGTTNYAGSVKGRFTISRDNAKNTVYLQMNTLRAEDTAVYYCKADHGYQGRGYWGQGTLVTVKP chain 2: DKTHTCPPCPAPGGPSVFLFPPKPKDTLMISRTPEVTCVVVDVSHEDPEVKFNWYVDGVEVHNAKTKPREEQYNSTYRVVSVLTVLHQDWLNGKEYKCKVSNKALPAPIEKTISKAKGQPREPQVCTLPPSRDELTKNQVSLSCAVKGFYPSDIAVEWESNGQPENNYKTTPPVLDSDGSFFLVSKLTVDKSRWQQGNVFSCSVMHEALHNRYTQKSLSLSPGGGGGGSGGGGGSGGGGGSQAVVTQEPSLTVSPGGTVTLTCGSSTGAVTTSNYANWVQQKPGQAFRGLIGGTNKRAPGVPARFSGSLLGGKAALTISGAQPEDEADYYCALWYSNHWVFGCGTKLEIKGGGGEVQLLESGGGEVQPGGSLRLSCAASGFSFSINAMGWYRQAPGKRREFVAAIESGRNTVYAESVKGRFTISRDNAKNTVYLQMSSLRAEDTAVYYCGLLKGNRVVSPSVAYWGQGTLVTVKP | – | no binding
cx5873 (other, Fc alternatives printed; first written; Short peptide linkers only 'e.g.'; also called monovalent B7H3-targeting constrained CD3 engaging construct (C-terminal sdAb)) chain 1: DKTHTCPPCPAPGGPSVFLFPPKPKDTLMISRTPEVTCVVVDVSHEDPEVKFNWYVDGVEVHNAKTKPREEQYNSTYRVVSVLTVLHQDWLNGKEYKCKVSNKALPAPIEKTISKAKGQPREPQVYTLPPCRDELTKNQVSLWCLVKGFYPSDIAVEWESNGQPENNYKTTPPVLDSDGSFFLYSKLTVDKSRWQQGNVFSCSVMHEALHNHYTQKSLSLSPTGGGGGSGGGGGSGGGGGSEVQLVESGGGLVQPGGSLRLSCAASGFTFNTYAMNWVRQAPGKCLEWVARIRSKYNNYATYYADSVKGRFTISRDDAKNTLYLQMSSLRAEDTAVYYCVRHGNFGNSYVSWFAYWGQGTLVTVKPGGGGEVQLVESGGGEVQPGGSLRLSCAASGFTFSSYHMSWFRQAPGKQREPVATSHHGGTTNYAGSVKGRFTISRDNAKNTVYLQMNTLRAEDTAVYYCKADHGYQGRGYWGQGTLVTVKP chain 2: DKTHTCPPCPAPGGPSVFLFPPKPKDTLMISRTPEVTCVVVDVSHEDPEVKFNWYVDGVEVHNAKTKPREEQYNSTYRVVSVLTVLHQDWLNGKEYKCKVSNKALPAPIEKTISKAKGQPREPQVCTLPPSRDELTKNQVSLSCAVKGFYPSDIAVEWESNGQPENNYKTTPPVLDSDGSFFLVSKLTVDKSRWQQGNVFSCSVMHEALHNRYTQKSLSLSPTGGGGGSGGGGGSGGGGGSQAVVTQEPSLTVSPGGTVTLTCGSSTGAVTTSNYANWVQQKPGQAFRGLIGGTNKRAPGVPARFSGSLLGGKAALTISGAQPEDEADYYCALWYSNHWVFGCGTKLEIKGGGGEVQLLESGGGEVQPGGSLRLSCAASGFSFSINAMGWYRQAPGKRREFVAAIESGRNTVYAESVKGRFTISRDNAKNTVYLQMSSLRAEDTAVYYCGLLKGNRVVSPSVAYWGQGTLVTVKP | binds | no binding
cx5965 (other, Fc alternatives printed; first written; Short peptide linkers only 'e.g.'; also called monovalent B7H3-targeting constrained CD3 engaging construct (N-terminal sdAb)) chain 1: EVQLVESGGGEVQPGGSLRLSCAASGFSFSSNVMMWVRQAPGKGLEWVSTIYSSGTGTFYAESVKGRFTISRDNAKNTLYLQMSSLRPEDTAVYYCATSGPVRGWGPRSQGTLVTVKPPGGGGDKTHTCPPCPAPGGPSVFLFPPKPKDTLMISRTPEVTCVVVDVSHEDPEVKFNWYVDGVEVHNAKTKPREEQYNSTYRVVSVLTVLHQDWLNGKEYKCKVSNKALPAPIEKTISKAKGQPREPQVYTLPPCRDELTKNQVSLWCLVKGFYPSDIAVEWESNGQPENNYKTTPPVLDSDGSFFLYSKLTVDKSRWQQGNVFSCSVMHEALHNHYTQKSLSLSPTGGGGGSGGGGGSGGGGGSEVQLVESGGGLVQPGGSLRLSCAASGFTFNTYAMNWVRQAPGKCLEWVARIRSKYNNYATYYADSVKGRFTISRDDAKNTLYLQMSSLRAEDTAVYYCVRHGNFGNSYVSWFAYWGQGTLVTVKP chain 2: DKTHTCPPCPAPGGPSVFLFPPKPKDTLMISRTPEVTCVVVDVSHEDPEVKFNWYVDGVEVHNAKTKPREEQYNSTYRVVSVLTVLHQDWLNGKEYKCKVSNKALPAPIEKTISKAKGQPREPQVCTLPPSRDELTKNQVSLSCAVKGFYPSDIAVEWESNGQPENNYKTTPPVLDSDGSFFLVSKLTVDKSRWQQGNVFSCSVMHEALHNRYTQKSLSLSPTGGGGGSGGGGGSGGGGGSQAVVTQEPSLTVSPGGTVTLTCGSSTGAVTTSNYANWVQQKPGQAFRGLIGGTNKRAPGVPARFSGSLLGGKAALTISGAQPEDEADYYCALWYSNHWVFGCGTKLEIKGGGGEVQLLESGGGEVQPGGSLRLSCAASGFSFSINAMGWYRQAPGKRREFVAAIESGRNTVYAESVKGRFTISRDNAKNTVYLQMSSLRAEDTAVYYCGLLKGNRVVSPSVAYWGQGTLVTVKP | binds | no binding
